Measured values reported in patent publication US20230104769A1 (MABWELL SHANGHAI BIOSCIENCE, published 2023).

Columns and labels:
[1] = target: T1, recombinant human PD-1 protein (NCBI accession No.: NP_005009.2, 21aa-167aa) (human, UniProt Q15116 21-167); assay: BLI (Octet QKe), biotin-labelled antibody on streptavidin sensor, PD-1 100 nM-12.5 nM
T1 construct: range 21-167; also called recombinant human PD-1 extracellular domain protein; PD-1-ECD
Experimental: Determination of the binding kinetics: the affinity of the antibody was determined with Octet QKe system from Fortebio using an assay of capturing biotin-labeled antibody with streptavidin. […] Both the binding and dissociating were conducted for 300 s.

[2] = target: T2, rat PD-1 (Cat: 80448-R08H, Sino Biological Inc.) (rat, UniProt D3ZIN8 25-169); assay: ELISA, plate coated with the PD-1 protein at 1 µg/mL, biotinylated h317, HRP-streptavidin
T2 construct: Bought recombinant protein; also called recombinant rat PD-1; not shown: The vendor's tag
T2 sequence: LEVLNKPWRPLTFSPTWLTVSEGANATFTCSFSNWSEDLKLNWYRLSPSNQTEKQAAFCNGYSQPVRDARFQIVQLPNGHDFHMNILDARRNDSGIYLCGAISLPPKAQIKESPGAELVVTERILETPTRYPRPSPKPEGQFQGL
Experimental: (§1) The plates were washed three times with PBS subsequently, and 5% BSA-PBS was added for blocking for 60 min at 37° C. […] Again, the plates were washed four times with PBST, then HRP-streptavidin (Cat: 019-035-098, Jackson immuno Research) with a dilution of 1:100 was added for a 30 min incubation at 37° C. Once again, the plates were washed four times with PBST, and TMB substrate was added for developing color through incubating for 10 min at 37° C., then the reaction was terminated by adding 2 M HCl. With 630 nm as reference wavelength, the absorbance at a wavelength of 450 nm (A450 nm-630 nm) of each well in the plates was read and recorded.

[3] = target: T3, mouse PD-1 (Cat: 50124-M08H, Sino Biological Inc.) (mouse, UniProt Q02242 25-167); assay: as above
T3 construct: Bought recombinant protein; also called recombinant mouse PD-1
T3 sequence (looked up): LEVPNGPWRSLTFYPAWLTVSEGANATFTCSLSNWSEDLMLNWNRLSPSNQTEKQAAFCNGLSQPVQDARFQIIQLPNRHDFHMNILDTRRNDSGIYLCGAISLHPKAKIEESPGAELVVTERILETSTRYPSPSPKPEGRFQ
Experimental: as §1

N116A = target: T4, N116A; assay: flow cytometry on transfected HEK293 cells, antibody 2 µg/ml, goat anti-human IgG(Fc)-Cy5; no negative-control bar is drawn
T4 construct: also called full-length human PD-1 N116A expressed on HEK293 cells; PD-1-mut N116A; not shown: EGFP of the expression vector, if it is fused to PD-1
Experimental: The mutants obtained were inserted into an expression vector carrying EGFP to construct five plasmids expressing full-length human PD-1 (WT, N49A, N58A., N116A, N74A). […] 2 days after the transfection, the cells were collected to a 96-well plate, centrifuged at 1500 rpm for 2 minutes, and the supernatants in the wells were discarded. […] The working concentration of the primary antibodies was 2 μg/ml, and cells without primary antibodies added were used as negative controls. The mixtures obtained were centrifuged at 1500 rpm for 2 minutes, and supernatants were discarded. The cells in each well were resuspended by adding 200 μl PBS and the suspensions obtained were then centrifuged at 1500 rpm for 2 minutes, then supernatants were discarded. Later, the obtained cells were incubated with 200 μl goat anti-human IgG(Fc)-Cy5 (Cat: 12136, Lot: 017M4800V, Sigma) diluted with 5% BSA added into each well for 1 h at room temperature, then centrifuged at 1500 rpm for 2 minutes, and supernatants were discarded. The cells were resuspended by adding 200 μl PBS and the suspensions obtained were then centrifuged at 1500 rpm for 2 minutes, then supernatants were discarded. The cells again were resuspended by adding 200 μl PBS thereto and detected by flow cytometry (B49007AD, SNAW31211).

T1 sequence (Q15116 21-167 limits assumed, form in doubt): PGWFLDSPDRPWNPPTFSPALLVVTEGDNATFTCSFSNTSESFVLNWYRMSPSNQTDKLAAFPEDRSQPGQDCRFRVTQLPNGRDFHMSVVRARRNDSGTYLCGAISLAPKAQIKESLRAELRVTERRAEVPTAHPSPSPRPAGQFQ
T4 sequence (chain, as listed by the source N116A N116A limits assumed): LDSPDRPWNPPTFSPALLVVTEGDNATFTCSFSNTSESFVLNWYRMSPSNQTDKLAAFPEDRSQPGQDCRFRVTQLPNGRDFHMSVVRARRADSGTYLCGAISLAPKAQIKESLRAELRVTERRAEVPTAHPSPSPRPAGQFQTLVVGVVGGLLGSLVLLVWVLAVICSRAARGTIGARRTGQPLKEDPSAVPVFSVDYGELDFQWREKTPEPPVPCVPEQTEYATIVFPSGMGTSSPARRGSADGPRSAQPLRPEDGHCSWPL

B1: h317 (humanized anti-human PD-1 antibody) (antibody, V domains shown)
VH: EVQLVESGGGLVKPGGSLRLSCAASGFTFSSYDMSWVRQAPGKGLEWVATISGGGSYTYYPDSVKGRFTISRDNAKNSLYLQMNSLRAEDTAVYYCASPDSSGVAYWGQGTLVTVSS
VL: DIVMTQSPLSLPVTPGEPASITCKASQDVETVVAWYLQKPGQSPRLLIYWASTRHTGVPDRFSGSGSGTDFTLKISRVEAEDVGVYYCQQYSRYPWTFGQGTKL
notes: also called h317-biotin; biotinylated h317
Kd [1]: 6.16 nM | koff [1]: 0.00095 s⁻¹ | kon [1]: 154000 M⁻¹ s⁻¹ | binding result [2]: no binding (tested: 1 nM (log(nM) 0 on the axis)) | binding result [3]: no binding (tested: 1 nM (log(nM) 0 on the axis)) | binding result (N116A): binds
